Experimental data published in the supplement of paper PMC7877785.
± gives the uncertainty stated by the source.

Experiment: self-splicing fitness, log relative to wild type (ln ratio); higher = more splicing; Tetrahymena group I intron in knt gene, E. coli kanamycin selection, DiMSum; sequences stand for … in CUCUCU…GGAGGGAAAAGUUAUCAGGCAUGCACCUGGUAGCUAGUCUUUAAACCAAUAGAUUGCAUCGGUUUAAAAGGCAAGACCGUCAAAUUGCGGGAAAGGGGUCAACAGCCGUUCAGUACCAAGUCUCAGGGGAAACUUUGAGAUGGCCUUGCAAAGGGUAUGGUAAUAAGCUGACGGACAUGGUCCUAACCACGCAGCCAAGUCCUAAGUCAACAGAUCUUCUGUUGAUAUGGAUGCAGUUCACAGACUAAAUGUCGGUCGGGGAAGAUGUAUUCUUCUCAUAAGAUAUAGUCGGACCUCUCCUUAAUGGGAGCUAGCGGAUGAAGUGAUGCAACACUGGAGCCGCUGGGAACUAAUUUGUAUGCGAAAGUAUAUUGAUUAGUUUUGGAGUACUCGUGGUCG
Procedure, shortened: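 A randomised library covering all eight P1ex-region intron nucleotides was built with the intron in the knt kanamycin-resistance gene on pET-22b(+) and held in E. coli BL21(DE3). Cells were grown overnight at 37°C or 30°C on LB agar, with or without 25 μg/mL kanamycin, plus 100 μg/mL carbenicillin, 50 μM IPTG and 0.2% rhamnose, and pooled colonies were amplicon-sequenced on an Illumina HiSeq 2500. DiMSum fitness is the error-weighted combination of wild-type-normalised replicate fold changes, kanamycin versus none.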

| Sequence | self-splicing fitness (ln) (30 °C) | self-splicing fitness (ln) (37 °C) |
| --- | --- | --- |
| UACUAGCAAUAUUACGGGCG | -0.0495 ± 0.11 | 0.375 ± 0.14 |
| GUCGAGCAAUAUUACGCGCC | -2.74 ± 0.24 | -1.87 ± 0.42 |
| AACAAGCAAUAUUACGCGCG | -0.623 ± 0.093 | 0.651 ± 0.11 |
| CGGAAGCAAUAUUACGGUCC | -3.37 ± 0.27 | -0.831 ± 0.13 |
| UUCGAGCAAUAUUACGAGAC | -0.119 ± 0.49 | – |
| CCAUAGCAAUAUUACGUGGG | -4.18 ± 0.16 | -2.96 ± 0.15 |
| CUCCAGCAAUAUUACGAGAG | -4.68 ± 0.31 | -1.32 ± 0.13 |
| GGUAAGCAAUAUUACGUGUG | -2.8 ± 0.16 | -2.61 ± 0.16 |
| ACUGAGCAAUAUUACGGCGG | -1.46 ± 0.1 | -1.54 ± 0.13 |
| CUAUAGCAAUAUUACGAGAC | -1.7 ± 0.37 | – |
| CGAGAGCAAUAUUACGUCUA | -3.15 ± 0.36 | – |
| AGUCAGCAAUAUUACGGCUC | -3.84 ± 0.43 | -1.54 ± 0.45 |
| UGACAGCAAUAUUACGUCCA | -0.629 ± 0.061 | 0.245 ± 0.1 |
| CCAGAGCAAUAUUACGAGCU | -3.54 ± 0.34 | -2.35 ± 0.45 |
| GUCCAGCAAUAUUACGUAAG | -0.607 ± 0.071 | -0.277 ± 0.11 |
| AUCUAGCAAUAUUACGGUCC | -1.34 ± 0.21 | 1.22 ± 0.25 |
| ACACAGCAAUAUUACGAUAA | -2.46 ± 0.098 | -1.97 ± 0.11 |
| ACUGAGCAAUAUUACGUGUA | -3.51 ± 0.2 | -2.5 ± 0.17 |
| UAACAGCAAUAUUACGACCC | -2.15 ± 0.18 | -1.42 ± 0.19 |
| GAGGAGCAAUAUUACGAUUC | -3.4 ± 0.27 | -1.65 ± 0.22 |
| CAUAAGCAAUAUUACGCGAC | -3.45 ± 0.33 | -3.11 ± 0.4 |
| GUCCAGCAAUAUUACGCCUG | -2.5 ± 0.2 | -0.12 ± 0.21 |
| GGCCAGCAAUAUUACGUACG | -1.8 ± 0.11 | -1.1 ± 0.12 |
| CAUAAGCAAUAUUACGUAGU | -3.82 ± 0.28 | -0.576 ± 0.17 |
| UCUCAGCAAUAUUACGGUCU | -3.23 ± 0.2 | -1.74 ± 0.15 |

| Sequence | self-splicing fitness (ln) (30 °C) | self-splicing fitness (ln) (37 °C) |
| --- | --- | --- |
| CCUGAGCAAUAUUACGUAUC | – | -2.46 ± 0.23 |
| CAUGAGCAAUAUUACGGACA | -3.32 ± 0.48 | -0.812 ± 0.25 |
| GAUCAGCAAUAUUACGCGAC | -1.63 ± 0.15 | -1.62 ± 0.15 |
| ACUAAGCAAUAUUACGAGUA | -2.35 ± 0.17 | -1.78 ± 0.18 |
| AGAUAGCAAUAUUACGCCGA | -1.89 ± 0.3 | -0.973 ± 0.3 |
| GACCAGCAAUAUUACGGAUU | -0.723 ± 0.049 | -0.029 ± 0.062 |
| GCUAAGCAAUAUUACGGGUC | -2.55 ± 0.17 | -1.89 ± 0.15 |
| CUAAAGCAAUAUUACGGCUA | -3.85 ± 0.21 | -2.34 ± 0.25 |
| CCGGAGCAAUAUUACGUAAU | -3.95 ± 0.15 | -3.36 ± 0.23 |
| CGGCAGCAAUAUUACGAGAA | -3.01 ± 0.19 | -2.32 ± 0.19 |
| AGUAAGCAAUAUUACGGGGG | -3.08 ± 0.22 | -2.87 ± 0.29 |
| UGCUAGCAAUAUUACGGGUA | -0.992 ± 0.14 | -0.151 ± 0.12 |
| UACUAGCAAUAUUACGGCAG | -0.408 ± 0.075 | 0.134 ± 0.12 |
| UUCGAGCAAUAUUACGGCAU | -2.95 ± 0.27 | -1.44 ± 0.19 |
| GCCUAGCAAUAUUACGGUCG | -3.36 ± 0.2 | -2.5 ± 0.25 |
| CAAGAGCAAUAUUACGGUUA | -2.21 ± 0.15 | -2.08 ± 0.18 |
| AUAAAGCAAUAUUACGAGAC | -2.89 ± 0.17 | -1.63 ± 0.19 |
| UGCCAGCAAUAUUACGUGGG | -3.88 ± 0.13 | -2.74 ± 0.14 |
| CUGAAGCAAUAUUACGGGCU | -3.56 ± 0.17 | -3.15 ± 0.21 |
| CGGUAGCAAUAUUACGGCCA | 0.0804 ± 0.18 | -0.151 ± 0.24 |
| UUAGAGCAAUAUUACGAUUA | -1.07 ± 0.11 | -0.181 ± 0.13 |
| CGCGAGCAAUAUUACGAGCG | -3.55 ± 0.28 | -2.37 ± 0.3 |
| GAAAAGCAAUAUUACGUCAG | -3.91 ± 0.33 | -1.39 ± 0.19 |
| CGGUAGCAAUAUUACGUUGC | -2.1 ± 0.14 | -2.85 ± 0.33 |
| ACAUAGCAAUAUUACGAGUU | -3.28 ± 0.18 | -2.28 ± 0.2 |

| Sequence | self-splicing fitness (ln) (30 °C) | self-splicing fitness (ln) (37 °C) |
| --- | --- | --- |
| AUGUAGCAAUAUUACGGCGC | -0.704 ± 0.094 | -0.408 ± 0.12 |
| CUCUAGCAAUAUUACGUAUG | -3.02 ± 0.21 | -1.61 ± 0.15 |
| UGCAAGCAAUAUUACGUGCG | -2.86 ± 0.18 | -1.94 ± 0.18 |
| ACCUAGCAAUAUUACGAAUU | -2.72 ± 0.13 | -0.574 ± 0.12 |
| CACGAGCAAUAUUACGAAAG | -3.34 ± 0.3 | -2.22 ± 0.36 |
| GGUAAGCAAUAUUACGCCAG | -4.42 ± 0.27 | -2.13 ± 0.29 |
| UGCCAGCAAUAUUACGGAAC | -3.49 ± 0.34 | – |
| GCAUAGCAAUAUUACGUGCA | -2.74 ± 0.17 | -1.21 ± 0.14 |
| AUUAAGCAAUAUUACGGGUG | -1.87 ± 0.13 | -1.69 ± 0.16 |
| CAGGAGCAAUAUUACGCCAA | -2.89 ± 0.37 | – |
| CCUGAGCAAUAUUACGUAGA | -3.23 ± 0.13 | -2.26 ± 0.14 |
| CCGUAGCAAUAUUACGACCG | -0.302 ± 0.12 | 0.31 ± 0.2 |
| CAUCAGCAAUAUUACGGUAA | -2.64 ± 0.14 | -1.09 ± 0.086 |
| GCGGAGCAAUAUUACGAGUC | – | -1.09 ± 0.45 |
| GAAGAGCAAUAUUACGUCAA | -3.04 ± 0.27 | -2.16 ± 0.22 |
| GCGUAGCAAUAUUACGGACC | -2.2 ± 0.24 | -2.35 ± 0.35 |
| AUCAAGCAAUAUUACGCUAU | -3.18 ± 0.16 | -0.907 ± 0.12 |
| CGUCAGCAAUAUUACGAUCU | -1.09 ± 0.086 | -0.0587 ± 0.11 |
| AAAAAGCAAUAUUACGACGU | 0.102 ± 0.054 | 0.768 ± 0.067 |
| CAGGAGCAAUAUUACGCGCU | -2.49 ± 0.2 | -2.62 ± 0.41 |
| UAAUAGCAAUAUUACGAACA | -1.07 ± 0.14 | -0.685 ± 0.13 |
| CUGUAGCAAUAUUACGUUUG | -1.44 ± 0.085 | -0.284 ± 0.1 |
| GAAAAGCAAUAUUACGCAAA | -0.0354 ± 0.26 | -1.79 ± 0.32 |
| UCCAAGCAAUAUUACGAAUU | -3.42 ± 0.14 | -2.5 ± 0.16 |
| AAUUAGCAAUAUUACGCUCG | 0.0366 ± 0.13 | 0.217 ± 0.16 |

| Sequence | self-splicing fitness (ln) (30 °C) | self-splicing fitness (ln) (37 °C) |
| --- | --- | --- |
| GUGCAGCAAUAUUACGACCA | -0.711 ± 0.1 | -0.667 ± 0.13 |
| CAGAAGCAAUAUUACGCCAU | -2.66 ± 0.14 | -2.77 ± 0.18 |
| UUACAGCAAUAUUACGCAGC | -4.38 ± 0.26 | -3.01 ± 0.16 |
| UAAAAGCAAUAUUACGUAAU | -2.6 ± 0.12 | -1.08 ± 0.13 |
| CAGCAGCAAUAUUACGUUGA | -2.82 ± 0.16 | -1.93 ± 0.18 |
| GCCCAGCAAUAUUACGUGAC | -1.38 ± 0.057 | -0.584 ± 0.069 |
| CGUGAGCAAUAUUACGCAGU | -3.4 ± 0.41 | -2.03 ± 0.44 |
| AACUAGCAAUAUUACGAACU | -0.149 ± 0.088 | -0.455 ± 0.098 |
| GCGAAGCAAUAUUACGGAUC | -0.303 ± 0.071 | -0.659 ± 0.094 |
| GAAUAGCAAUAUUACGCUCC | – | -1.37 ± 0.33 |
| ACGAAGCAAUAUUACGGAGC | -3.94 ± 0.27 | -1.29 ± 0.23 |
| CCCCAGCAAUAUUACGAUGC | -3.46 ± 0.16 | -3.15 ± 0.29 |
| UUUGAGCAAUAUUACGCCAG | -2.78 ± 0.36 | -2.12 ± 0.47 |
| ACGUAGCAAUAUUACGGUUG | -2.6 ± 0.1 | -0.902 ± 0.12 |
| UUGUAGCAAUAUUACGUACU | -0.641 ± 0.12 | -0.216 ± 0.14 |
| GUCUAGCAAUAUUACGAAUU | -1.29 ± 0.077 | -0.287 ± 0.098 |
| ACAAAGCAAUAUUACGGCGC | -0.996 ± 0.076 | 0.358 ± 0.12 |
| UGUAAGCAAUAUUACGAAGU | -3.23 ± 0.47 | -2.46 ± 0.35 |
| CGGUAGCAAUAUUACGUCAC | -2.59 ± 0.34 | -1.82 ± 0.48 |
| GGACAGCAAUAUUACGCGCA | -0.346 ± 0.061 | 0.497 ± 0.09 |
| GCUUAGCAAUAUUACGUCUA | -1.96 ± 0.26 | -0.873 ± 0.2 |
| CCAAAGCAAUAUUACGCGGA | -3.47 ± 0.22 | -2.76 ± 0.3 |
